Laboratory results reported in patent publication US20240400614A1, “CLEAVABLE PEPTIDES AND METHODS OF USE THEREOF” (Bright Peak Therapeutics AG, priority 2023, published 2024).
Square brackets hold non-standard residues; d marks the D form. Ends that are not written are not given here. Tyr(3-NO2) = N[C@@H](Cc1ccc(O)c([N+](=O)[O-])c1)C(=O)O; Nle = CCCC[C@H](N)C(=O)O; 2Abz = Nc1ccccc1C(=O)O

Columns and labels:
Type in all cases: biochemical
matriptase = biological target: T1, matriptase (Homo sapiens, UniProt Q9Y5Y6); test: FRET peptide cleavage efficiency with matriptase
T1 construct: purchased R&D Systems 3946-SEB
T1 sequence (Q9Y5Y6 615-855 limits assumed): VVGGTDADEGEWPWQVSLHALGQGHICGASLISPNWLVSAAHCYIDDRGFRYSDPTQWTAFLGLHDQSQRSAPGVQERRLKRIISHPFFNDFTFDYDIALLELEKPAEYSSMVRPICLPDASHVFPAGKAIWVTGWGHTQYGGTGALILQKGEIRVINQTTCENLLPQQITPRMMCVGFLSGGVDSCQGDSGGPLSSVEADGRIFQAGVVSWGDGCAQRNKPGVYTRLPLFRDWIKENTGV

uPA = uPA (Homo sapiens, UniProt P00749); test: FRET peptide cleavage efficiency with uPA
MMP-7 = biological target: T2, MMP-7 (Homo sapiens, UniProt P09237); test: FRET peptide cleavage efficiency with MMP-7 (standard pH 7.5; also pH 6.5)
T2 construct: purchased SIGMA CC1059
T2 sequence (P09237 95-267): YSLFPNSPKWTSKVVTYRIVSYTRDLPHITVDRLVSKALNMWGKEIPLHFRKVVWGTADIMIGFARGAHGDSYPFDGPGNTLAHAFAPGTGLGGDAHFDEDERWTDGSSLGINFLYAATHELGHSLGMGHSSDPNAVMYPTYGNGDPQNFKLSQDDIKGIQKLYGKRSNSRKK

MMP-9 = biological target: T3, MMP-9 (Homo sapiens, UniProt P14780); test: FRET peptide cleavage efficiency with MMP-9 (standard pH 7.5; also pH 6.5)
T3 construct: purchased SIGMA PF024
T3 sequence (P14780 94-707): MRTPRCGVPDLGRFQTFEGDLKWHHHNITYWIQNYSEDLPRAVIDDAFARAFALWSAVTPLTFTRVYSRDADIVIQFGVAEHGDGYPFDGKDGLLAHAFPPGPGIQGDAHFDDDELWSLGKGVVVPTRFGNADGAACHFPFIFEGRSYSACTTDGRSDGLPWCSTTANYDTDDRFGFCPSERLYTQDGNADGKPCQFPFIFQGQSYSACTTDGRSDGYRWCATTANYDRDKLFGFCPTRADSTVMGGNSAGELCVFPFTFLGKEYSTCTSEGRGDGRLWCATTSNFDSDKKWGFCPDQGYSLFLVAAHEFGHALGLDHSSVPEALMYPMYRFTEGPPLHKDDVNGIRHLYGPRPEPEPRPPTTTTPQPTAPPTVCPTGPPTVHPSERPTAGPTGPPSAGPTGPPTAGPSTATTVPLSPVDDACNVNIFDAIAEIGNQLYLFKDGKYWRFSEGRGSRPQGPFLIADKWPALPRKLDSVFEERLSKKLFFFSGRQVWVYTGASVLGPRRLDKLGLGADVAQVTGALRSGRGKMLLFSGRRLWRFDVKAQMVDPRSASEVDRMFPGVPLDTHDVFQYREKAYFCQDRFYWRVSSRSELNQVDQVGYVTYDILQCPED

MMP-2 = biological target: T4, MMP-2 (Homo sapiens, UniProt P08253); test: FRET peptide cleavage efficiency with MMP-2
T4 construct: purchased SIGMA PF023
T4 sequence (P08253 110-660): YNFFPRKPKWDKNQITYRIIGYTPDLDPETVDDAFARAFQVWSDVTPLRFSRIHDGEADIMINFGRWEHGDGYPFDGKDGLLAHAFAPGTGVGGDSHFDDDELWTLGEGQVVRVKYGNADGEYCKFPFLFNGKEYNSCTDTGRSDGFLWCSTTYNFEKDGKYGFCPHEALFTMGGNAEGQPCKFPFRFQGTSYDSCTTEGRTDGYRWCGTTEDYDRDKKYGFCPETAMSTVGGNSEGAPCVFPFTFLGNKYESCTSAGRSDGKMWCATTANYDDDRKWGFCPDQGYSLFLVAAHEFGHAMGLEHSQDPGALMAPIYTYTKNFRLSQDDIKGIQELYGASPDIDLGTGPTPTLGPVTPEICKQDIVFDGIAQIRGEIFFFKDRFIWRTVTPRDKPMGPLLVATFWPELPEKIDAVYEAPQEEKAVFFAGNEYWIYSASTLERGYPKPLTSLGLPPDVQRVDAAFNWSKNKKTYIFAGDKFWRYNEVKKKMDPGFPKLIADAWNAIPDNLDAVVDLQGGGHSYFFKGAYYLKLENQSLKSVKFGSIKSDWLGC

[1] = t = 15 min, standard conditions (Table 8)
[2] = t = 60 min, standard conditions (Table 8)
[3] = t = 120 min, standard conditions (Table 8)
[4] = 200 uM linker, 1 ug/ml protease, 37° C., buffer B pH 9.0
[5] = 200 uM linker, 1 ug/ml protease, 37° C., buffer A pH 8.5
[6] = t = 15 min, 200 uM linker, 1 ug/ml protease, 37° C., buffer C pH 7.5
[7] = t = 60 min, 200 uM linker, 1 ug/ml protease, 37° C., buffer C pH 7.5
[8] = t = 120 min, 200 uM linker, 1 ug/ml protease, 37° C., buffer C pH 7.5

Row | % cleavage Matriptase t = 15 min (matriptase; standard conditions (Table 8)) [%] | % cleavage Matriptase t = 60 min (matriptase; standard conditions (Table 8)) [%] | % cleavage Matriptase t = 120 min (matriptase; standard conditions (Table 8)) [%] | % vcleavage uPA t = 15 min (uPA; standard conditions (Table 8)) [%] | % cleavage uPA t = 60 min (uPA; standard conditions (Table 8)) [%] | % cleavage uPA t = 120 min (uPA; standard conditions (Table 8)) [%] | % cleavage MMP-7 t = 15 min (MMP-7; t = 15 min (Table 9)) [%] | % cleavage MMP-7 t = 15 min (MMP-7; [1]) [%] | % cleavage MMP-7 t = 60 min (MMP-7; t = 60 min (Table 9)) [%] | % cleavage MMP-7 t = 60 min (MMP-7; [2]) [%] | % cleavage MMP-7 t = 120 min (MMP-7; t = 120 min (Table 9)) [%] | % cleavage MMP-7 t = 120 min (MMP-7; [3]) [%] | % cleavage MMP-9 t = 15 min (MMP-9; t = 15 min (Table 9)) [%] | % cleavage MMP-9 t = 15 min (MMP-9; [1]) [%] | % cleavage MMP-9 t = 60 min (MMP-9; t = 60 min (Table 9)) [%] | % cleavage MMP-9 t = 60 min (MMP-9; [2]) [%] | % cleavage MMP-9 t = 120 min (MMP-9; t = 120 min (Table 9)) [%] | % cleavage MMP-9 t = 120 min (MMP-9; [3]) [%] | % cleavage MMP-2 t = 15 min (MMP-2; t = 15 min (Table 9)) [%] | % cleavage MMP-2 t = 60 min (MMP-2; t = 60 min (Table 9)) [%] | Substance | further results
1 | 77 | 100 | 100 | 0 | 0 | 0 | 35 | 35 | 80 | 80 | 96 | 96 | 25 | 25 | 74 | 74 | 94 | 94 | 10 | 38 | RGRKPQPLVD ([2Abz]RGRKPQPLVD[Tyr(3-NO2)]-NH2) [LNK039] | % cleavage MMP-2 t = 60 min (MMP-2; [2]): 38%; % cleavage MMP-2 t = 120 min (MMP-2; t = 120 min (Table 9)): 61%; % cleavage MMP-2 t = 120 min (MMP-2; [3]): 61%
2 | 76 | 100 | 100 | 0 | 0 | 0 | 34 | 34 | 88 | 88 | 100 | 100 | 28 | 28 | 87 | 87 | 100 | 100 | 27 | 70 | RGRKPY-Nle-LQG ([2Abz]RGRKPY[Nle]LQG[Tyr(3-NO2)]-NH2) [LNK036] | % cleavage MMP-2 t = 60 min (MMP-2; [2]): 70%; % cleavage MMP-2 t = 120 min (MMP-2; t = 120 min (Table 9)): 88%; % cleavage MMP-2 t = 120 min (MMP-2; [3]): 88%
3 | 67 | 100 | 100 | 0 | 0 | 0 | 28 | 28 | 80 | 80 | 95 | 95 | 42 | 42 | 100 | 100 | 100 | 100 | 33 | 77 | RGRKPYMLQG ([2Abz]RGRKPYMLQG[Tyr(3-NO2)]-NH2) [LNK035] | % cleavage MMP-2 t = 60 min (MMP-2; [2]): 77%; % cleavage MMP-2 t = 120 min (MMP-2; t = 120 min (Table 9)): 91%; % cleavage MMP-2 t = 120 min (MMP-2; [3]): 91%
4 | 100 | 100 | 100 | 0 | 0 | 0 | 32 | 32 | 89 | 89 | 100 | 100 | 100 | 100 | 100 | 100 | 100 | 100 | 92 | 100 | RGRKSPANLVG ([2Abz]RGRKSPANLVG[Tyr(3-NO2)]-NH2) [LNK034] | % cleavage MMP-2 t = 60 min (MMP-2; [2]): 100%; % cleavage MMP-2 t = 120 min (MMP-2; t = 120 min (Table 9)): 100%; % cleavage MMP-2 t = 120 min (MMP-2; [3]): 100%
5 | 100 | 100 | 100 | 0 | 0 | 0 | 29 | 29 | 74 | 74 | 93 | 93 | 25 | 25 | 69 | 69 | 89 | 89 | 8 | 28 | RGRKSPQPLVD ([2Abz]RGRKSPQPLVD[Tyr(3-NO2)]-NH2) [LNK040] | % cleavage MMP-2 t = 60 min (MMP-2; [2]): 28%; % cleavage MMP-2 t = 120 min (MMP-2; t = 120 min (Table 9)): 47%; % cleavage MMP-2 t = 120 min (MMP-2; [3]): 47%
6 | – | – | – | – | – | – | – | – | – | – | – | – | – | – | – | – | – | – | – | – | SGRVLTLRKAPWGLLE ([2Abz]SGRVLTLRKAPWGLLE[Tyr(3-NO2)]-NH2) [LNK004] | % cleavage Matriptase t = 15 min (matriptase; [4]): 98%; % cleavage Matriptase t = 60 min (matriptase; [4]): 98%; % cleavage Matriptase t = 120 min (matriptase; [4]): 95%; % cleavage uPA t = 15 min (uPA; [5]): 6%; % cleavage uPA t = 60 min (uPA; [5]): 16%; % cleavage uPA t = 120 min (uPA; [5]): 27%; % cleavage MMP-2 t = 15 min (MMP-2; [6]): 16%; % cleavage MMP-2 t = 60 min (MMP-2; [7]): 50%; % cleavage MMP-2 t = 120 min (MMP-2; [8]): 74%
7 | – | – | – | – | – | – | – | – | – | – | – | – | – | – | – | – | – | – | – | – | SPLGLAGS ([2Abz]SPLGLAGS[Tyr(3-NO2)]-NH2) [LNK030] | % cleavage Matriptase t = 15 min (matriptase; [4]): 0%; % cleavage Matriptase t = 60 min (matriptase; [4]): 0%; % cleavage Matriptase t = 120 min (matriptase; [4]): 0%; % cleavage uPA t = 15 min (uPA; [5]): 0%; % cleavage uPA t = 60 min (uPA; [5]): 0%; % cleavage uPA t = 120 min (uPA; [5]): 0%; % cleavage MMP-2 t = 15 min (MMP-2; [6]): 67%; % cleavage MMP-2 t = 60 min (MMP-2; [7]): 100%; % cleavage MMP-2 t = 120 min (MMP-2; [8]): 99%
8 | – | – | – | – | – | – | – | – | – | – | – | – | – | – | – | – | – | – | – | – | SSRAVFRKNLGPLGLAG ([2Abz]SSRAVFRKNLGPLGLAG[Tyr(3-NO2)]-NH2) [LNK002] | % cleavage Matriptase t = 15 min (matriptase; [4]): 89%; % cleavage Matriptase t = 60 min (matriptase; [4]): 85%; % cleavage Matriptase t = 120 min (matriptase; [4]): 84%; % cleavage uPA t = 15 min (uPA; [5]): 5%; % cleavage uPA t = 60 min (uPA; [5]): 10%; % cleavage uPA t = 120 min (uPA; [5]): 18%; % cleavage MMP-2 t = 15 min (MMP-2; [6]): 77%; % cleavage MMP-2 t = 60 min (MMP-2; [7]): 99%; % cleavage MMP-2 t = 120 min (MMP-2; [8]): 98%
9 | – | – | – | – | – | – | – | – | – | – | – | – | – | – | – | – | – | – | – | – | SSRGPASNRRLPLGLAG ([2Abz]SSRGPASNRRLPLGLAG[Tyr(3-NO2)]-NH2) [LNK001] | % cleavage Matriptase t = 15 min (matriptase; [4]): 77%; % cleavage Matriptase t = 60 min (matriptase; [4]): 99%; % cleavage Matriptase t = 120 min (matriptase; [4]): 99%; % cleavage uPA t = 15 min (uPA; [5]): 4%; % cleavage uPA t = 60 min (uPA; [5]): 17%; % cleavage uPA t = 120 min (uPA; [5]): 30%; % cleavage MMP-2 t = 15 min (MMP-2; [6]): 54%; % cleavage MMP-2 t = 60 min (MMP-2; [7]): 98%; % cleavage MMP-2 t = 120 min (MMP-2; [8]): 99%
10 | – | – | – | – | – | – | – | – | – | – | – | – | – | – | – | – | – | – | – | – | SSRVFRKPANLAG ([2Abz]SSRVFRKPANLAG[Tyr(3-NO2)]-NH2) [LNK019] | % cleavage Matriptase t = 15 min (matriptase; [4]): 90%; % cleavage Matriptase t = 60 min (matriptase; [4]): 97%; % cleavage Matriptase t = 120 min (matriptase; [4]): 97%; % cleavage uPA t = 15 min (uPA; [5]): 4%; % cleavage uPA t = 60 min (uPA; [5]): 6%; % cleavage uPA t = 120 min (uPA; [5]): 10%; % cleavage MMP-2 t = 15 min (MMP-2; [6]): 84%; % cleavage MMP-2 t = 60 min (MMP-2; [7]): 99%; % cleavage MMP-2 t = 120 min (MMP-2; [8]): 99%
